The target in this data set is TMEM18 (UniProt Q96B42 1-140). The data set can be described thus: EMSA; 400 nM probe; EMSA: 10 mM Tris pH 7.4, 50 mM KCl, 1 mM DTT, 0.05% DDM, 30 min, RT; 4-20% TBE gel in 0.5x TBE. Conditions: protein: recombinant, tags: N-terminal Flag-His8, blunt. (A gel shift assay detects complexes by their altered migration in electrophoresis.)
TMEM18, sequence (Q96B42 whole entry): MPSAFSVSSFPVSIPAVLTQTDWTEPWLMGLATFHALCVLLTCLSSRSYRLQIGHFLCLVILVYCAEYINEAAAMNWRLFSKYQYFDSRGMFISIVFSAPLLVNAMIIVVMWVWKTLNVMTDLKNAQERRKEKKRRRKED

B1: biotin-(GCT)8 (dsDNA)
DNA 1: GCTGCTGCTGCTGCTGCTGCTGCT
DNA 2: AGCAGCAGCAGCAGCAGCAGCAGC
In the case of B1, for the setting “label: 5' biotin on (GCT)8 strand”, the binding result is given as “binds”.

B2: biotin-(GTG)8 (dsDNA)
DNA 1: GTGGTGGTGGTGGTGGTGGTGGTG
DNA 2: CACCACCACCACCACCACCACCAC
For B2, the binding result (label: 5' biotin on (GTG)8 strand) was “no binding”.
